# Measured values published in US20070117220A1, “METHOD AND APPARATUS FOR MEASURING FLUORESCENCE POLARIZATION IN LAB-ON-A-CHIP” (priority 2005, published 2007).
# B1: proteinase K: protease reacted with TMR-α-casein substrate (protein, UniProt P06873 106-384, looked up)
# Proteinase K: AAQTNAPWGLARISSTSPGTSTYYYDESAGQGSCVYVIDTGIEASHPEFEGRAQMVKTYYYSSRDGNGHGTHCAGTVGSRTYGVAKKTQLFGVKVLDDNGSGQYSTIIAGMDFVASDKNNRNCPKGVVASLSLGGGYSSSVNSAAARLQSSGVMVAVAAGNNNADARNYSPASEPSVCTVGASDRYDRRSSFSNYGSVLDIFGPGTSILSTWIGGSTRSISGTSMATPHVAGLAAYLMTLGKTTAASACRYIADTANKGDLSNIPFGTVNLLAYNNYQA
# B2: papain: protease reacted with TMR-α-casein substrate (protein, UniProt P00784 134-345, looked up)
# Papain: IPEYVDWRQKGAVTPVKNQGSCGSCWAFSAVVTIEGIIKIRTGNLNEYSEQELLDCDRRSYGCNGGYPWSALQLVAQYGIHYRNTYPYEGVQRYCRSREKGPYAAKTDGVRQVQPYNEGALLYSIANQPVSVVLEAAGKDFQLYRGGIFVGPCGNKVDHAVAAVGYGPNYILIKNSWGTGWGENGYIRIKRGTGNSYGVCGLYTSSFYPVKN
# Legend:
# [1] = tested on: TMR-α-casein; assay: On-chip protease assay by fluorescence polarization of TMR-α-casein substrate, lab-on-a-chip with optical chopper; format: biochemical; settings: 1 μM TMR-α-casein final in channel; reaction time 5.1 seconds; FIGS. 10A-10D
# Method: Next, the protease assays were carried out using an apparatus for measuring fluorescence polarization including the optical chopper of FIG. 2 on a lab-on-a-chip of glass composed of a channel 1 C1, in which substrates or enzymes flowed, and a channel 2 C2, in which the reaction occurred, the channels having a depth of 12 μm and a width of 79 μm as depicted in FIG. 8.
# For on-chip protease assays, the substrates and the enzymes should mix completely prior to the enzyme reactions. […] […] Therefore, the reaction time was confirmed to be 5.1 seconds after mixing of the substrate with the enzymes.
# Subsequently, to carry out the protease assays in the lab-on-a-chip,2 μM of TMR-α-casein (the final concentration in the channel was 1 μM) was placed in a substrate reservoir and the respective proteases were placed in an enzyme reservoir at increasing concentrations in the same manner as the comparative example. Then, the two substances were allowed to flow into a channel 2 C2, a main channel, to cause a reaction. Fluorescence polarization FP was then measured at the detection point, positioned 32 mm away from the junction, from which the substrates and the enzymes flowed in.
# Again, it was noted that fluorescence polarization values plateaued when the concentration of the enzymes reached at the point generating a specific rate or more.
# [2] = tested on: TMR-α-casein; assay: Protease assay by fluorescence polarization of TMR-α-casein substrate, commercial fluorescence spectrometer; format: biochemical; settings: time course, varying enzyme concentrations (unit/mL); FIGS. 9A-9D
# Method: Changes of fluorescence polarization FP were measured using the method and apparatus for measuring fluorescence polarization of the present invention, employing TMR-α-casein as a substrate, composed of TMR as a fluorescent probe and α-casein, a universal protein substrate reacted with various proteases.
# First, TMR-α-casein, a fluorescently labeled substrate for proteases, was prepared by applying one of the well-known methods [Analytical Biochemistry (,1996) 243, 1-7] as follows.
# 10 mg/mL of α-casein (sigma) and 5 mg/mL of 5-carboxytetramethylrhodamine succinimidyl ester were mixed in 0.1 M sodium bicarbonate buffer solution (pH 9.0) for reaction at room temperature for two and a half hours. The resulting TMR-α-casein was purified by passing the reaction mixture over a HiTrap desalting column (Sephadex G-25 Amersham Bioscience), and used after quantitation of the amounts of protein and fluorescence.
# Proteinase K, trypsin, papain and elastase were used as proteases to react at increasing concentrations. First, as a comparative example, the process that the TMR-α-casein substrate was degraded by the proteases was analyzed using a commercial fluorescence spectrometer (Perkin Elmer). […]
Molecule,change of fluorescence polarization values of TMR-α-casein with enzyme concentration [1],change of fluorescence polarization values of TMR-α-casein as the reaction proceeded [2]
B1,decreased with increasing concentrations,decreased
B2,decreased with increasing concentrations,decreased
